± gives the standard error. Variants at the floor of the assay were thinned out.
B1: glmS ribozyme (parent)
chain: AUAAAAGCGCCAGAACUACAGAAAUGUAGUUGACGAGGAGGAGGUUUAUCGAAUUUUCGGCGGAUGCCUCCAAA

Tests used:
Details in all cases: with glucosamine-6-phosphate
glucosamine-6-phosphate [1] = variants of: B1; assay: self-cleavage kobs at 160 uM GlcN6P; higher = faster cleavage; RNA array
In short: (§1)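 E. coli RNA polymerase transcribed barcoded ribozyme variants in situ on sequenced MiSeq chips, which were tracked via a hybridised Cy3 probe at 37 °C. Tiles were imaged over ~14 h after glucosamine-6-phosphate (40 μM to 10 mM) in HEPES/KCl/Mg(OAc)2 buffer was flowed in. Normalised per-tile medians were fit to one- or two-exponential decays for kobs, and kcat and KM came from weighted Michaelis–Menten fits.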

glucosamine-6-phosphate [2] = variants of: B1; assay: self-cleavage kobs at 640 uM GlcN6P; higher = faster cleavage; RNA array
In short: as §1

glucosamine-6-phosphate [3] = variants of: B1; assay: self-cleavage kobs at 2500 uM GlcN6P; higher = faster cleavage; RNA array
In short: as §1

glucosamine-6-phosphate [4] = variants of: B1; assay: self-cleavage kobs at 10000 uM GlcN6P; higher = faster cleavage; RNA array
In short: as §1

glucosamine-6-phosphate [5] = variants of: B1; assay: self-cleavage kobs at 40 uM GlcN6P; higher = faster cleavage; RNA array
In short: as §1

Variant: C34U C71U
- self-cleavage kobs at 160 uM GlcN6P (glucosamine-6-phosphate [1]): < 1e-05 s⁻¹
- self-cleavage kobs at 640 uM GlcN6P (glucosamine-6-phosphate [2]): < 1e-05 s⁻¹
- self-cleavage kobs at 2500 uM GlcN6P (glucosamine-6-phosphate [3]): < 1e-05 s⁻¹
- self-cleavage kobs at 10000 uM GlcN6P (glucosamine-6-phosphate [4]): < 1e-05 s⁻¹

Variant: U31A A36U
- self-cleavage kobs at 40 uM GlcN6P (glucosamine-6-phosphate [5]): < 1e-05 s⁻¹
- self-cleavage kobs at 160 uM GlcN6P (glucosamine-6-phosphate [1]): < 1e-05 s⁻¹
- self-cleavage kobs at 640 uM GlcN6P (glucosamine-6-phosphate [2]): < 1e-05 s⁻¹
- self-cleavage kobs at 2500 uM GlcN6P (glucosamine-6-phosphate [3]): < 1e-05 s⁻¹
- self-cleavage kobs at 10000 uM GlcN6P (glucosamine-6-phosphate [4]): < 1e-05 s⁻¹

Variant: A6G A42U A64G
- self-cleavage kobs at 40 uM GlcN6P (glucosamine-6-phosphate [5]): < 1e-05 s⁻¹
- self-cleavage kobs at 640 uM GlcN6P (glucosamine-6-phosphate [2]): < 1e-05 s⁻¹
- self-cleavage kobs at 2500 uM GlcN6P (glucosamine-6-phosphate [3]): < 1e-05 s⁻¹
- self-cleavage kobs at 10000 uM GlcN6P (glucosamine-6-phosphate [4]): < 1e-05 s⁻¹

Variant: U30A A52U U54A C71A
- self-cleavage kobs at 40 uM GlcN6P (glucosamine-6-phosphate [5]): < 1e-05 s⁻¹

Variant: A36G A64G U69G
- self-cleavage kobs at 40 uM GlcN6P (glucosamine-6-phosphate [5]): < 1e-05 s⁻¹

Variant: C16U G32C G38C
- self-cleavage kobs at 40 uM GlcN6P (glucosamine-6-phosphate [5]): < 1e-05 s⁻¹

Variant: G43C U55A
- self-cleavage kobs at 160 uM GlcN6P (glucosamine-6-phosphate [1]): < 1e-05 s⁻¹
- self-cleavage kobs at 640 uM GlcN6P (glucosamine-6-phosphate [2]): < 1e-05 s⁻¹

Variant: A36C C50A G62C
- self-cleavage kobs at 40 uM GlcN6P (glucosamine-6-phosphate [5]): < 1e-05 s⁻¹

Variant: A48G A64G
- self-cleavage kobs at 40 uM GlcN6P (glucosamine-6-phosphate [5]): < 1e-05 s⁻¹
- self-cleavage kobs at 2500 uM GlcN6P (glucosamine-6-phosphate [3]): 7.81e-05 ± 2.4e-05 s⁻¹
- self-cleavage kobs at 10000 uM GlcN6P (glucosamine-6-phosphate [4]): 9.59e-05 ± 2.5e-05 s⁻¹

Variant: A12G G41U A52G U54A
- self-cleavage kobs at 40 uM GlcN6P (glucosamine-6-phosphate [5]): < 1e-05 s⁻¹

Variant: G13A C58U C67G
- self-cleavage kobs at 40 uM GlcN6P (glucosamine-6-phosphate [5]): < 1e-05 s⁻¹

Variant: G60C C67A C71U
- self-cleavage kobs at 40 uM GlcN6P (glucosamine-6-phosphate [5]): < 1e-05 s⁻¹

Variant: C58A G62C
- self-cleavage kobs at 40 uM GlcN6P (glucosamine-6-phosphate [5]): < 1e-05 s⁻¹
- self-cleavage kobs at 160 uM GlcN6P (glucosamine-6-phosphate [1]): < 1e-05 s⁻¹
- self-cleavage kobs at 640 uM GlcN6P (glucosamine-6-phosphate [2]): < 1e-05 s⁻¹
- self-cleavage kobs at 2500 uM GlcN6P (glucosamine-6-phosphate [3]): < 1e-05 s⁻¹

Variant: U46C G60A
- self-cleavage kobs at 40 uM GlcN6P (glucosamine-6-phosphate [5]): < 1e-05 s⁻¹
- self-cleavage kobs at 160 uM GlcN6P (glucosamine-6-phosphate [1]): < 1e-05 s⁻¹
- self-cleavage kobs at 640 uM GlcN6P (glucosamine-6-phosphate [2]): < 1e-05 s⁻¹

Variant: U45C G60U
- self-cleavage kobs at 40 uM GlcN6P (glucosamine-6-phosphate [5]): < 1e-05 s⁻¹
- self-cleavage kobs at 160 uM GlcN6P (glucosamine-6-phosphate [1]): < 1e-05 s⁻¹
- self-cleavage kobs at 640 uM GlcN6P (glucosamine-6-phosphate [2]): < 1e-05 s⁻¹
- self-cleavage kobs at 10000 uM GlcN6P (glucosamine-6-phosphate [4]): < 1e-05 s⁻¹

Variant: A12G U47A G60A
- self-cleavage kobs at 40 uM GlcN6P (glucosamine-6-phosphate [5]): < 1e-05 s⁻¹
- self-cleavage kobs at 160 uM GlcN6P (glucosamine-6-phosphate [1]): < 1e-05 s⁻¹
- self-cleavage kobs at 640 uM GlcN6P (glucosamine-6-phosphate [2]): < 1e-05 s⁻¹

Variant: G35A G66U
- self-cleavage kobs at 40 uM GlcN6P (glucosamine-6-phosphate [5]): < 1e-05 s⁻¹
- self-cleavage kobs at 160 uM GlcN6P (glucosamine-6-phosphate [1]): < 1e-05 s⁻¹

Variant: A36U U46A
- self-cleavage kobs at 160 uM GlcN6P (glucosamine-6-phosphate [1]): < 1e-05 s⁻¹
- self-cleavage kobs at 640 uM GlcN6P (glucosamine-6-phosphate [2]): < 1e-05 s⁻¹
- self-cleavage kobs at 2500 uM GlcN6P (glucosamine-6-phosphate [3]): < 1e-05 s⁻¹
- self-cleavage kobs at 10000 uM GlcN6P (glucosamine-6-phosphate [4]): < 1e-05 s⁻¹

Variant: A6G G38A G43U A48U A52C U69G
- self-cleavage kobs at 160 uM GlcN6P (glucosamine-6-phosphate [1]): < 1e-05 s⁻¹
- self-cleavage kobs at 2500 uM GlcN6P (glucosamine-6-phosphate [3]): < 1e-05 s⁻¹

Variant: A36C G38C U56C
- self-cleavage kobs at 160 uM GlcN6P (glucosamine-6-phosphate [1]): < 1e-05 s⁻¹
- self-cleavage kobs at 2500 uM GlcN6P (glucosamine-6-phosphate [3]): < 1e-05 s⁻¹

Variant: U30C G35U G40U A42G U47C
- self-cleavage kobs at 160 uM GlcN6P (glucosamine-6-phosphate [1]): < 1e-05 s⁻¹
- self-cleavage kobs at 640 uM GlcN6P (glucosamine-6-phosphate [2]): < 1e-05 s⁻¹

Variant: C8U A12C A36G G37A
- self-cleavage kobs at 160 uM GlcN6P (glucosamine-6-phosphate [1]): < 1e-05 s⁻¹

Variant: A48U G59C
- self-cleavage kobs at 160 uM GlcN6P (glucosamine-6-phosphate [1]): < 1e-05 s⁻¹
- self-cleavage kobs at 640 uM GlcN6P (glucosamine-6-phosphate [2]): < 1e-05 s⁻¹
- self-cleavage kobs at 2500 uM GlcN6P (glucosamine-6-phosphate [3]): < 1e-05 s⁻¹
- self-cleavage kobs at 10000 uM GlcN6P (glucosamine-6-phosphate [4]): < 1e-05 s⁻¹

Variant: A48U G59A
- self-cleavage kobs at 40 uM GlcN6P (glucosamine-6-phosphate [5]): < 1e-05 s⁻¹
- self-cleavage kobs at 160 uM GlcN6P (glucosamine-6-phosphate [1]): < 1e-05 s⁻¹
- self-cleavage kobs at 640 uM GlcN6P (glucosamine-6-phosphate [2]): < 1e-05 s⁻¹
- self-cleavage kobs at 2500 uM GlcN6P (glucosamine-6-phosphate [3]): < 1e-05 s⁻¹
- self-cleavage kobs at 10000 uM GlcN6P (glucosamine-6-phosphate [4]): < 1e-05 s⁻¹

Variant: C8G U30A
- self-cleavage kobs at 40 uM GlcN6P (glucosamine-6-phosphate [5]): < 1e-05 s⁻¹
- self-cleavage kobs at 160 uM GlcN6P (glucosamine-6-phosphate [1]): < 1e-05 s⁻¹
- self-cleavage kobs at 640 uM GlcN6P (glucosamine-6-phosphate [2]): < 1e-05 s⁻¹
- self-cleavage kobs at 10000 uM GlcN6P (glucosamine-6-phosphate [4]): < 1e-05 s⁻¹

— the supplement of paper PMC7125110
